Source: publication PMC5426754, “Ezrin interacts with S100A4 via both its N- and C-terminal domains” (PLoS ONE, 2017)
Substitutions are numbered along the chain they refer to. Names may count otherwise.

B1: S100A4 (metastasin), wild type (natural protein)
chain: not shown
B2: Fl-C-ERMAD^T567D (fluorescently labeled phosphomimetic C-ERMAD mutant) (domain or fragment, human)
chain: CKRITEAEKNERVQRQLLTLSSELSQARDENKRTHNDIIHNENMRQGRDKYKDLRQIRQGNTKQRIDEFEAL
modifications: fluorescent label on the N-terminal cysteine (Alexa Fluor 568 C5 maleimide by the methods for the C-ERMAD fragments)
notes: cysteine cloned before Lys516, carries the fluorescent label (as for the C-ERMAD); human ezrin C-ERMAD with Thr567Asp; limits are those printed for the parent C-ERMAD (Lys516-Leu586); source: E. coli Rosetta(DE3), purified, fluorescently labeled; not shown: GST, N-terminal, cleaved
B3: Fl-C-ERMAD (fluorescently labeled ezrin C-ERMAD, Cys-Lys516-Leu586) (domain or fragment, human)
chain: B2 chain with D53T
modifications: Alexa Fluor 568 C5 maleimide on the N-terminal cysteine (the same paragraph also calls the peptides fluorescein-conjugated)
notes: cysteine cloned before Lys516, carries the fluorescent label; human ezrin C-ERMAD, Lys516-Leu586; also called fluorescently-labeled C-ERMAD; not shown: GST, N-terminal, cleaved
B4: Ezrin C-ERMAD (Cys-Lys516-Leu586), unlabeled (domain or fragment, human)
chain: B2 chain with D53T
notes: cysteine cloned before Lys516 for fluorescent labeling; human ezrin C-ERMAD, Lys516-Leu586; also called unlabeled C-ERMAD; not shown: GST, N-terminal, cleaved
B5: S100P (natural protein, UniProt P25815 1-95, looked up)
chain: MTELETAMGMIIDVFSRYSGSEGSTQTLTKGELKVLMEKELPGFLQSGKDKDAVDKLLKDLDANGDAQVDFSEFIVFVAAITSACHKYFEKAGLK

Key:
Settings in all cases: both partners purified
[1] = target: T1, Ezrin F2 lobe of the N-ERMAD (Glu87-Glu199) (human, UniProt P15311 87-199); experiment: other fluorescence titration; steady-state tryptophan fluorescence; 2 μM ezrin construct titrated with S100 protein; 20 mM HEPES pH 7.5, 150 mM NaCl, 0.5 mM TCEP, 1 mM CaCl2; 25°C; quadratic binding equation
[2] = target: T2, Ezrin N-ERMAD (N-terminal ERM domain, FERM domain, Met1-Lys296) (human, UniProt P15311 1-296); experiment: as above
[3] = target: T3, Full-length human ezrin, phosphomimicking mutant T567D (human, UniProt P15311 1-586, Thr567Asp); experiment: as above
Full-length human ezrin [4] = target: T4, Full-length human ezrin (human, UniProt P15311 1-586); experiment: as above
[5] = target: T1, Ezrin F2 lobe of the N-ERMAD …; experiment: as above; remark: listed apart in the source
[6] = target: T2, Ezrin N-ERMAD (N-terminal ERM domain, …); experiment: stopped-flow tryptophan fluorescence kinetics; 1 μM (post-mixing) N-ERMAD or F2 lobe mixed with S100A4 at different concentrations; 20 mM HEPES pH 7.5, 150 mM NaCl, 0.5 mM TCEP, 1 mM CaCl2; 25°C; Kd from amplitudes (quadratic), K1, k2, k-2 from hyperbola of kobs (induced fit)
[7] = target: T1, Ezrin F2 lobe of the N-ERMAD …; experiment: as above
[8] = target: T2, Ezrin N-ERMAD (N-terminal ERM domain, …); experiment: fluorescence polarisation; competitive FP; 50 nM Fl-NMIIA complexed with 4 μM S100A4 dimer titrated with ezrin constructs; competition binding equation; triplicates
[9] = target: T3, Full-length human ezrin, …; experiment: as above
Full-length human ezrin [10] = target: T4, Full-length human ezrin; experiment: as above
[11] = target: T1, Ezrin F2 lobe of the N-ERMAD …; experiment: as above
[12] = target: B1; experiment: fluorescence polarisation; direct FP; 50 nM fluorescent tracer (Fl-C-ERMAD variants or Fl-NMIIA) titrated with S100 proteins or N-ERMAD; 20 mM HEPES pH 7.5, 150 mM NaCl, 0.1 mM TCEP, 1 mM CaCl2, 0.05% Tween-20; triplicates; quadratic binding equation
[13] = target: T2, Ezrin N-ERMAD (N-terminal ERM domain, …); experiment: as above
[14] = target: B1; experiment: fluorescence polarisation; competitive FP; 50 nM Fl-NMIIA complexed with 4 μM S100A4 dimer titrated with ezrin constructs; competition binding equation; triplicates
[15] = target: T2, Ezrin N-ERMAD (N-terminal ERM domain, …); experiment: circular dichroism; far-UV CD difference spectra of complexes; 10 mM Tris pH 7.5, 150 mM NaCl, 0.1 mM TCEP, 1 mM CaCl2; 15 μM N-ERMAD + 50 μM S100A4 dimer, 25 μM F2 lobe + 25 μM S100A4 dimer, 25 μM C-ERMAD + 100 μM S100A4 dimer or 30 μM N-ERMAD; BeStSel deconvolution
[16] = target: T2, Ezrin N-ERMAD (N-terminal ERM domain, …); experiment: other fluorescence titration; steady-state tryptophan fluorescence; 2 μM ezrin construct titrated with S100 protein; 20 mM HEPES pH 7.5, 150 mM NaCl, 0.5 mM TCEP, 1 mM CaCl2; 25°C; quadratic binding equation; remark: listed apart in the source

Binder: B1
stoichiometry N [1]: 1 S100A4 dimer per F2 lobe
Kd [2]: 2200 nM
Kd [3]: 158000 nM
Kd (Full-length human ezrin [4]): 175000 nM
Kd [5]: < 100 nM
Kd [6]: 3900 nM
Kd [7]: 170 nM
Kd [8]: 1100 nM
Kd [9]: 72200 nM
Kd (Full-length human ezrin [10]): 92100 nM
Kd [11]: 120 nM

Binder: B2
Kd [12]: 2700 nM
binding result [13]: binds

Binder: B3
Kd [12]: 3400 nM
Kd [13]: 8.6 ± 0.7 nM

Binder: B4
Kd [14]: 5300 nM
binding result [15]: binds

Binder: B5
Kd [16]: 1700 ± 300 nM
